Source: patent US20140178293A1, “METHODS FOR IMAGING BONE PRECURSOR CELLS USING DUAL-LABELED IMAGING AGENTS TO DETECT MMP-9 POSITIVE CELLS” (BAYLOR COLLEGE OF MEDICINE, priority 2011, published 2014)
Where two headings read alike, the source gives them in different places. Blank lines part the entries; values can stand above or below the molecule they belong to. Positions of bridges follow the written chain, without caps; N, C: chain ends. No end group written: not given here. *: point of attachment. DOTA = O=C(O)CN1CCN(CC(=O)O)CCN(CC(=O)*)CCN(CC(=O)O)CC1

How the values were obtained:
[1] = biological target: T1, MMP-9 (Mus musculus, UniProt P41245); assay: in vivo NIR fluorescence imaging of ^64Cu-M2 in murine model of BMP-2 induced HO; design: injected intramuscularly into each hind limb quadriceps muscle of nonobese diabetic/severely compromised immunodeficient (NOD/SCID) mice; from tissue; host or cells: hind limb muscle of living NOD/SCID mice injected with AdBMP2- or Adempty-transduced human fibroblasts
Description: NIR fluorescence images were acquired using custom-built fluorescence imaging systems (Houston et al., 2005) 18 hours after intravenous administration of ^64Cu-M2. Briefly, a field of view was illuminated with 785 nm of light from a laser diode, outfitted with a convex lens and diffuser to create a uniform excitation field. The fluorescence was collected through holographic and interference filters placed before a Nikon camera lens. The images were finally captured by an electron-multiplying charge-coupled device camera (PhotonMax 512; Princeton Instruments, Princeton, N.J.) with 200 to 400 milliseconds of integration time. For acquisition of white-light images, the optical filters were removed, and a low-power lamp illuminated the subject. Image acquisition was accomplished by V++ software (Aukland, New Zealand).

[2] = biological target: T1, MMP-9
[3] = in vitro stability of ^64Cu-M2 in PBS or 500-fold excess DTPA (radio-HPLC); type: physicochemical; settings: room temperature, normalized to 100% at t=0
Description: (§1) After radiolabeling, 150 μl of ^64Cu-M2 was diluted in equal volumes of PBS or DTPA solution and kept at room temperature. Aliquots were taken at 0, 2, 6 and 24 hrs post-incubation and analyzed by radio-HPLC. To evaluate serum stability, 150 μl of ^64Cu-M2 was added to 150 μl of 50% mouse serum and incubated at 37° C. An 80 μl aliquot was taken at each of the above-mentioned time points and added to 160 μl ice-cold acetonitrile. The samples were centrifuged at 14,000 g for 5 min and the supernatant was collected and analyzed by radio-HPLC.

[4] = in vitro; type: in vitro ADME; settings: mouse, serum
Description: as §1

[5] = characterization of fluorescent properties; type: physicochemical
Description: Fluorescence intensity of the fluorophores was determined using the Fluorolog Tau-3 Spectrofluorometer (Horiba Jobin Yvon, Edison, N.J.) with excitation from a xenon arc lamp and absorbance was recorded using the DU-800 Spectrophotometer (Beckman Coulter, Brea Calif.). Fluorescence excitation and emission spectra were obtained at wavelengths of 785 and 830 nm respectively, with an integration time of 0.3 seconds for 1 μM solutions of IRDye 800CW, M2 and ^68Ga-M2 (n=4). Fluorescence measurements for IRDye 800CW and M2 were performed in aqueous solution under ambient conditions, whereas ^68Ga-M2 was prepared as previously described in NaOAc (pH 4) to provide an accurate representation of the ^68Ga-labeling scheme. Extinction coefficients were determined from the slope of absorbance at 785 nm as a function of the concentration of serial dilutions of each agent. Fluorescence quantum yield was determined by the comparative method of Williams et al. (Williams et al., 1983) using the quantum yield of ICGO (Φ=0.016) at 785/830 nm as a standard.

[6] = aqueous solution, 785/830 nm, used as standard; cited from earlier work
[7] = biological target: MMP-9 (AnaSpec, Fremont, Calif.) (UniProt P14780 107-707, limits assumed); assay: cell-based or functional assay
[8] = biological target: MMP-9 in mouse hind limb tissue (BMP-2 induced HO model, NOD/SCID mice) (mouse, UniProt P41245 108-730, limits assumed); assay: cell-based or functional assay
[9] = 4 days post-implantation with 200x M1 as blocking (24 hours prior)
[10] = 1 μM solutions, IRDye 800CW and M2 aqueous, ^68Ga-M2 in NaOAc pH 4

T1 sequence (P41245 108-730): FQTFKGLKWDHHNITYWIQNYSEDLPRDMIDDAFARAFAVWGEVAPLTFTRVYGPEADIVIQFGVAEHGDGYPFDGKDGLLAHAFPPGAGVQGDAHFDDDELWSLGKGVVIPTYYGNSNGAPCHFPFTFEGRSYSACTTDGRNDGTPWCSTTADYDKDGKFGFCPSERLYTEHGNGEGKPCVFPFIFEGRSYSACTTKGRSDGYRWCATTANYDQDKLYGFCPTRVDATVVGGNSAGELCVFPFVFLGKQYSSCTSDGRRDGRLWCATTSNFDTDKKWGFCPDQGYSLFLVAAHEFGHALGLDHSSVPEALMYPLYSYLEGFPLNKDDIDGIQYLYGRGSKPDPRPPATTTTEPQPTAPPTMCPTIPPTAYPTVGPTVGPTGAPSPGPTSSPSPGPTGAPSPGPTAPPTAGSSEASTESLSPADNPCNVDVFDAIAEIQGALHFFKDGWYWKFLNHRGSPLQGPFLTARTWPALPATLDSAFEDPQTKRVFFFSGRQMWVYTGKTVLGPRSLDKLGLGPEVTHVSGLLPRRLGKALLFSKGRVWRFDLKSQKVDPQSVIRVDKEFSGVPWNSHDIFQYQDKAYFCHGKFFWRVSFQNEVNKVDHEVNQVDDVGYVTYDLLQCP
Chain of MMP-9 in mouse hind limb tissue (BMP-2 induced HO model, NOD/SCID mice) (P41245 108-730 limits assumed): as the sequence (P41245 108-730) above
Chain of MMP-9 (AnaSpec, Fremont, Calif.) (P14780 107-707 limits assumed): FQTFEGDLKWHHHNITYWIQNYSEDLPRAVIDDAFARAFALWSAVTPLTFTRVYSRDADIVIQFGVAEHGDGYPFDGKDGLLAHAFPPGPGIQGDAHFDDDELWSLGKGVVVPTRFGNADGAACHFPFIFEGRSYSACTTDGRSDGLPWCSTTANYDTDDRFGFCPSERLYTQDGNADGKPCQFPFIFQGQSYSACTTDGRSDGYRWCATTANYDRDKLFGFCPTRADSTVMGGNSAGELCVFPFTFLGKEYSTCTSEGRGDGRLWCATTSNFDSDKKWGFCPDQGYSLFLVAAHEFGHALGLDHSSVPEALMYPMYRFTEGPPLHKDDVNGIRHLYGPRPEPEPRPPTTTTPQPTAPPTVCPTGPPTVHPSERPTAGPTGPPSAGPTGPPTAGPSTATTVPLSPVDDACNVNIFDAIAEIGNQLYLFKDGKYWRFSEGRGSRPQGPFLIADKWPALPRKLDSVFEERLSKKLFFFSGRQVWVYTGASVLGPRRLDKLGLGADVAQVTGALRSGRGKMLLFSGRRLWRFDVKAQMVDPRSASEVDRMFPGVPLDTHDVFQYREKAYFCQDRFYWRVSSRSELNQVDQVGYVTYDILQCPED

Molecule: CC(C)C[C@@H]1NC(=O)[C@H]([C@@H](C)O)NC(=O)[C@H](Cc2ccccc2)NC(=O)CNC(=O)[C@H](Cc2c[nH]c3ccccc23)NC(=O)[C@H](Cc2c[nH]cn2)NC(=O)[C@H](C)NC(=O)[C@@H](NC(=O)[C@H](CCCCNC(=O)CCCCC[N+]2=C(C=CC3=C(Oc4ccc(S(=O)(=O)O)cc4)C(=CC=C4N(CCCCS(=O)(=O)O)c5ccc(S(=O)(=O)O)cc5C4(C)C)CCC3)C(C)(C)c3cc(S(=O)(=O)[O-])ccc32)NC(=O)CN2CCN(CC(=O)O)CCN(CC(=O)O)CCN(CC(=O)O)CC2)CCCCNC(=O)C[C@@H](C(=O)O)NC1=O (single isomer, unassigned) [^64Cu-M2, metal not drawn]
Target/background ratio (NIR) ([1]; 2 days post-implantation, 18 hours after i.v. administration): 1.13 ± 0.03
Target/background ratio (NIR) [1, 9]: 1.13 ± 0.18
Target/background ratio (NIR) ([1]; 4 days post-implantation, 18 hours after i.v. administration): 1.24 ± 0.05
Target/background ratio (NIR) ([1]; 6 days post-implantation, 18 hours after i.v. administration): 1.10 ± 0.03
Target/background ratio (PET/CT) ([2]; 2 days post-implantation, 200 μCi, 6 nmol i.v.): 3.29±0.9
Target/background ratio (PET/CT) [2, 9]: 1.44±0.66
Target/background ratio (PET/CT) ([2]; 4 days post-implantation, 200 μCi, 6 nmol i.v.): 4.02±1.39
Target/background ratio (PET/CT) ([2]; 6 days post-implantation, 200 μCi, 6 nmol i.v.): 3.41±0.51
% injected dose/g (PET/CT) ([2]; NOD/SCID, mouse, in vivo, iv, 6 nmol): 0.61 ± 0.04 % injected dose/g
whole-body distribution ([2]; mouse, in vivo, iv): slow clearance from circulation along with uptake in the liver and kidneys
percentage of intact component ([3]; DTPA, 2 hrs): 97.8 ± 1.3%
percentage of intact component ([3]; DTPA, 6 hrs): 97.7 ± 0.6%
percentage of intact component ([3]; DTPA, 24 hrs): 96.4±1.1%
percentage of intact component ([3]; PBS, 24 hrs): 98.9 ± 1.5%
remaining at 2 h [4]: 99.6 ± 0.6%
remaining at 6 h [4]: 94.8 ± 0.6%
remaining at 24 h [4]: 53.7 ± 3.7%

Molecule: CC1(C)C(/C=C/C=C/C=C/C=C2\N(CCCCS(=O)(=O)O)c3ccc4ccccc4c3C2(C)C)=[N+](CCCCS(=O)(=O)[O-])c2ccc3ccccc3c21 [ICG, indocyanine green]
quantum yield of standard [6]: 0.016

Molecule: {DOTA}-KKAHWGFTLD (lactam 2-10; also: IRDye 800CW conjugated through an amine, site not given here) [dual-conjugate M2 (M1 conjugated with IRDye 800CW)]
inhibition of MMP-9 by gelatin zymography [7]: 10 fold decrease compared to M1

B1: ^64Cu-M2 (peptide)
peptide: {DOTA}-KKAHWGFTLD
modifications: lactam 2-10; also: DOTA chelating 64Cu, IRDye 800CW conjugated through a reactive amine group
Target/background ratio (NIR), day 2 post-implantation [8]: 1.13 ratio
Target/background ratio (NIR), day 4 post-implantation [8]: 1.24 ratio
Target/background ratio (NIR), day 4 with 200x M1 as blocking [8]: 1.13 ratio
Target/background ratio (NIR), day 6 post-implantation [8]: 1.1 ratio
Target/background ratio (PET/CT), day 2 post-implantation [8]: 3.29 ratio
Target/background ratio (PET/CT), day 4 post-implantation [8]: 4.02 ratio
Target/background ratio (PET/CT), day 4 with 200x M1 as blocking [8]: 1.44 ratio
Target/background ratio (PET/CT), day 6 post-implantation [8]: 3.41 ratio

More lines, now with the values ahead:

Emission maximum [5, 10]: 830 nm
Excitation wavelength [5, 10]: 785 nm
Quantum yield ([5]; 785/830 nm, relative to ICG (Φ=0.016)): 0.034
Extinction coefficient ([5]; absorbance at 785 nm, serial dilutions, mean ± SD (n=4)): 181,458 ± 2,189 M^−1cm^−1
Molecule: CC1(C)C(=CC=C2CCCC(C=CC3=[N+](CCCCCC(=O)[O-])c4ccc(S(=O)(=O)[O-])cc4C3(C)C)=C2Oc2ccc(S(=O)(=O)[O-])cc2)N(CCCCS(=O)(=O)[O-])c2ccc(S(=O)(=O)[O-])cc21.[Na+].[Na+].[Na+].[Na+] [IRDye 800CW, reference compound]

bone formation by μCT after blocking dose ([2]; 200-fold excess of M1, μCT after 7 days): still exhibited bone formation
Molecule: (lactam 2,10) DOTA-KKAHWGFTLD ({DOTA}-KKAHWGFTLD; lactam 2-10) [M1]
